Laboratory results published in patent publication US20220242962A1 (APTEVO RESEARCH AND DEVELOPMENT, published 2022).

T1: Human OX40 ECD-AFH (human)
T1 construct: ECD'; entry includes the C-terminal tags; also called OXF003; Human OX40 ECD-avi-flag-his
T1 chain: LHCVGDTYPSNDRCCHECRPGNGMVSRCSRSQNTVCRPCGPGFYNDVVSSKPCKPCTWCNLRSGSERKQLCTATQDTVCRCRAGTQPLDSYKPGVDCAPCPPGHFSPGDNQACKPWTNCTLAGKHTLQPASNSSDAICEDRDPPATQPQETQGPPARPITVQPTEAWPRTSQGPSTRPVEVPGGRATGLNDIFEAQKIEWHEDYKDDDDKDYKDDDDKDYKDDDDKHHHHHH

T2: Full-length Human OX40 (human, UniProt P43489 29-277)
T2 construct: also called OXF001; human OX40/CHO
T2 sequence: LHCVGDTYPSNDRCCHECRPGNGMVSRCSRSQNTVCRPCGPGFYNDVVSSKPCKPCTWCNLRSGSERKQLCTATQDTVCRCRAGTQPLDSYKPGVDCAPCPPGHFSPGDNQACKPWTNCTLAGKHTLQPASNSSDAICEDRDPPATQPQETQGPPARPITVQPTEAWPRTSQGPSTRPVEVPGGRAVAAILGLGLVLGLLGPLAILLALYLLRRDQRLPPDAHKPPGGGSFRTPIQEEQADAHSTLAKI

T3: Full-length Cyno OX40 (cynomolgus monkey, UniProt P43489 29-277 (human entry))
T3 construct: on CHO-K1SV cells; also called OXF004; cynomolgus OX40
T3 chain: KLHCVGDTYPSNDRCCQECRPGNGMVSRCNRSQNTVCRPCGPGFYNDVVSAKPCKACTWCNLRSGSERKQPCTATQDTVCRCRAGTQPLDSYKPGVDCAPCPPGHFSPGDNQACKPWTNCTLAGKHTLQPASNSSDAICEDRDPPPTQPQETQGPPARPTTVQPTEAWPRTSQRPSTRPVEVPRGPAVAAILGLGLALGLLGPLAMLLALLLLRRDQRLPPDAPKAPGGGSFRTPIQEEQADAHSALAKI

T4: Fc gamma receptor RIIA R131 on CHO-K1SV cells (human, UniProt P12318 34-317)
T4 construct: whole, on cells
T4 sequence (looked up): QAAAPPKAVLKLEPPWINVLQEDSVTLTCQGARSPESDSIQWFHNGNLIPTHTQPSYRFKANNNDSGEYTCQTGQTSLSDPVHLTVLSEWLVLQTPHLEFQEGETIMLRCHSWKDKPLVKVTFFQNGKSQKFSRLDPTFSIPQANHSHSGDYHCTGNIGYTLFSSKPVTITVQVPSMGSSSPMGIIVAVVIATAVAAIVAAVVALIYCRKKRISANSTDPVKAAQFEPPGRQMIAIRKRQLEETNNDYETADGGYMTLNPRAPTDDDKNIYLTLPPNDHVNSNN

B1: FXX01066 (bispecific antibody)
chain: EVQLVQSGAEVKKPGASVKVSCKASGYTFTSYWMNWVRQAPGQGLEWMGNIYPSGGSTNYAQKFQGRVTMTVDTSTSTVYMELSSLRSEDTAVYYCASFSDGYYAYAMDYWGQGTLVTVSSGGGGSGGGGSGGGGSGGGGSEIVMTQSPATLSLSPGERATLSCRASQSVSSYLNWYQQKPGQAPRLLIYYASRRHTGIPARFSGSGSGTDFTLTISSLQPEDFAVYYCQQGYNLPYTFGQGTKVEIKEPKSSDKTHTCPPCPAPPAAAPSVFLFPPKPKDTLMISRTPEVTCVVVDVSHEDPEVKFNWYVDGVEVHNAKTKPREEQYNSTYRVVSVLTVLHQDWLNGKEYKCAVSNKALPAPIEKTISKAKGQPREPQVYTLPPSRDELTKNQVSLTCLVKGFYPSDIAVEWESNGQPENNYKTTPPVLDSDGSFFLYSKLTVDKSRWQQGNVFSCSVMHEALHNHYTQKSLSLSPGGGGSPSSYVLTQPPSVSVAPGQTARITCGGNNIGSKSVNWFQQKPGQAPVLVVYDDSGRPSGIPERFSGSTSGNTATLTISRVEAGDEADYYCQVWDSSSDHVVFGGGTKLTVLGGGGSGGGGSGGGGSGGGGSQVQLVESGGGVVQPGRSLRLSCAASGFTLSYYGMHWVRQAPGKGLEWVAAISHDGSDKYYADSVKGRFTISRDNSKNTLYLQMNSLRAEDTAVYYCSNDQFDPWGQGTLVTVSSR
notes: ADAPTIR scFv-Fc-scFv, anti-4-1BB (VH-VL) N-terminal, anti-OX40 C-terminal, PAA (del) Fc; also called FX01066
B2: TSC 1005 (other)
chain: EPKSSDKTHTCPPCPAPPVAAPSVFLFPPKPKDTLMISRTPEVTCVVVDVSHEDPEVKFNWYVDGVEVHNAKTKPREEQYNSTYRVVSVLTVLHQDWLNGKEYKCAVSNKALPAPIEKTISKAKGQPREPQVYTLPPSRDELTKNQVSLTCLVKGFYPSDIAVEWESNGQPENNYKTTPPVLDSDGSFFLYSKLTVDKSRWQQGNVFSCSVMHEALHNHYTQKSLSLSPG
notes: IgG1 Fc with E233P, L234V, L235A, deletion of G236, G237A, K322A (EU); also called PVAdel TSC01005

How the values were obtained:
[1] = molecular target: T5, Human 4-1BB ECD-AFH (human); test: SPR (T200), construct captured, monomeric ECD as analyte
T5 construct: entry includes the tags; also called FOB003; HUMAN CD137 ECD-AVI-FLAG-HIS
Protocol: (§1) Mouse anti-human IgG (GE, BR-1008-39) at 25 μg/ml in 10 mM sodium acetate pH 5.0 was immobilized at a density of ˜10,000 response units (RU) onto each flow cell of a CM5 research-grade sensor chip (GE) by standard amine coupling chemistry. Each binding protein at approximately 100 nM in HBS-EP+ with 0.2% BSA buffer was captured in a flow cell with the immobilized anti-human IgG at a flow rate of 10 μL/min for 20 seconds, leaving one flow cell surface unmodified as the reference. Using a single-cycle kinetics mode, five different concentrations of ECD were sequentially injected through each flow cell at 30 μL/min for 300 seconds followed by a 600 second dissociation period. Regeneration was achieved by injection of 3 M MgCl₂ at a flow rate of 30 μL/min for 30 seconds followed by HBS-EP+ with 0.2% BSA buffer stabilization for 1 min.
(§2) Sensorgrams obtained from kinetic SPR measurements were analyzed by the double subtraction method. The signal from the reference flow cell was subtracted from the analyte binding response obtained from flow cells with immobilized or captured ligands. Buffer reference responses were then averaged from multiple injections. The averaged buffer reference responses were then subtracted from analyte binding responses, and the final double-referenced data were analyzed with Biacore T200 Evaluation software (2.0, GE), globally fitting data to derive kinetic parameters. All sensorgrams were fitted using a simple one-to-one binding model.

[2] = molecular target: T1, Human OX40 ECD-AFH; test: as above
Protocol: as §1, §2

[3] = molecular target: T2, Full-length Human OX40; test: flow cytometry, CHO cells expressing human OX40
[4] = molecular target: T3, Full-length Cyno OX40; test: flow cytometry on CHOK1SV cells transfected with cynomolgus OX40, goat anti-human Fc secondary antibody, MFI (Mean)
Protocol: Serial dilutions of ADAPTIR™ constructs were incubated with cells transfected with human or cynomolgus ECD and subsequently labelled with a fluorescently-conjugated goat-α-human Fc secondary antibody. […] (See Example 16.)

[5] = molecular target: T6, Fc gamma receptor RIIIA F158 on CHO-K1SV cells (human, UniProt P08637 17-254); test: flow cytometry, CHO-K1SV transfectants
T6 construct: whole, on cells
Protocol: (§3) CHO-K1SV cells stably transfected with a series of FcγR receptors were incubated with each of the […] listed in Table 23. A typical experiment labeled approximately 100,000 cells per well, in 96-well plates, with a range of binding molecule concentrations of 1 to 1000 nM, in 100 μl of PBS buffer with 0.2% BSA and 2 mM EDTA, for 30 minutes on ice, followed by washes and incubation with PE-labeled minimum cross species reactive secondary antibody, goat anti-human IgG Fcγ, F(ab′)2 ([…]) for 30 minutes to 1 hour on ice. Signal from bound molecules was detected using a LSR-II™ flow cytometer (BD Biosciences) and analyzed by FlowJo flow cytometry analysis software. Mean fluorescence intensity (MFI) of bound molecules on cells was determined after exclusion of doublets.

[6] = molecular target: T7, Fc gamma receptor RIIIB on CHO-K1SV cells (human, UniProt O75015 17-200); test: flow cytometry, CHO-K1SV transfectants
T7 construct: whole, on cells
Protocol: as §3

[7] = molecular target: T4, Fc gamma receptor RIIA R131 on CHO-K1SV …; test: flow cytometry, CHO-K1SV transfectants
Protocol: as §3

T5 sequence (chain, as listed by the source limits assumed): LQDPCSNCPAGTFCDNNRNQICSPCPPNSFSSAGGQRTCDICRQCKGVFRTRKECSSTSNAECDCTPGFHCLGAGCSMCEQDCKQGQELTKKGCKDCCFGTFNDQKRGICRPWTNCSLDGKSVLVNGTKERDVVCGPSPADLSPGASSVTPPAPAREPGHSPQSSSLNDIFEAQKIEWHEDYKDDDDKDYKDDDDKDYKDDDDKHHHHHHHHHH
T7 sequence (O75015 17-200): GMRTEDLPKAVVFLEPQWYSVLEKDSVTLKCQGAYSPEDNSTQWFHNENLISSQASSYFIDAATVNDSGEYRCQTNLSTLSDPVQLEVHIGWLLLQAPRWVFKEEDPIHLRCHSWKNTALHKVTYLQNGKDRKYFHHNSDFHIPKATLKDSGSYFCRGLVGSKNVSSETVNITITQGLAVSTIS
T6 sequence (P08637 17-254): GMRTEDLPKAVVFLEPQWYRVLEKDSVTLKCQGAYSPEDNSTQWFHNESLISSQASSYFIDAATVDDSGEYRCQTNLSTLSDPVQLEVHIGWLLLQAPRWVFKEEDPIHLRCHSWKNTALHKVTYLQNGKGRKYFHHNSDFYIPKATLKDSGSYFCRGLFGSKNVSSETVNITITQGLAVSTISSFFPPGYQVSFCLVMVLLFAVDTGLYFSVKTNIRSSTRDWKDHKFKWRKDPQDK

| Binder | Kd [1] [nM] | koff [1] [s⁻¹] | kon [1] [M⁻¹ s⁻¹] | Kd [2] [nM] | koff [2] [s⁻¹] | kon [2] [M⁻¹ s⁻¹] | EC50 [3] [nM] | Max MFI [3] [MFI] | EC50 (read off the curve) [4] [nM] | binding result [5] | binding result [6] | binding result [7] |
| --- | --- | --- | --- | --- | --- | --- | --- | --- | --- | --- | --- | --- |
| B1 | 14 | 0.0044 | 300000 | 0.4 | 0.00014 | 380000 | 1.5 | 8620 | ~2 |  |  |  |
| B2 |  |  |  |  |  |  |  |  |  | no binding (tested: 1 to 1000 nM) | no binding (tested: 1 to 1000 nM) | no binding (tested: 1 to 1000 nM) |
